Numbering of substitutions follows the chain as printed.
B1: MBP-PIF4^bHLH (bHLH DNA-binding domain of PIF4 fused to N-terminal maltose binding protein) (domain or fragment, Arabidopsis thaliana, UniProt Q8W2F3 248-317, looked up)
chain: QRSGSNRRSRAAEVHNLSERRRRDRINERMKALQELIPHCSKTDKASILDEAIDYLKSLQLQLQVMWMGS
notes: codon-optimised for E. coli; also called PIF4 bHLH domain; PIF4^bHLH WT; source: E. coli ArcticExpress, purified (Ni-NTA, size-exclusion chromatography); not shown: MBP, N-terminal, kept
B2: MBP-PIF4^(bHLH (Mu3)) (PIF4 bHLH domain mutated in Interface 3 and Interface 4) (domain or fragment, Arabidopsis thaliana, UniProt Q8W2F3 248-317, looked up)
chain: B1 chain with E28A, R29A, K31A, Q34A, E35A, Q64A, W67A
notes: source: E. coli ArcticExpress, purified (Ni-NTA, size-exclusion chromatography); not shown: MBP, N-terminal, kept

Molecular target: the molecule itself
Assay: SEC; gel filtration of a single MBP fusion protein (self-association); HiLoad 200, 25 mM Bis-Tris pH 8.0, 150 mM NaCl

Protein | stoichiometry N
B1 | 4
B2 | 2

— PMC9477738, “PIF4 enhances DNA binding of CDF2 to co-regulate target gene expression and promote Arabidopsis hypocotyl cell elongation” (Nature Plants, 2022)
